The record followed here is patent US20220396794, “[…] AGAINST TRANSFERRIN RECEPTOR (TfR)” (APTERNA LIMITED, published 2022).

In data set [1] the target is T1, Transferrin receptor 1 (hTfR/hTFRC) extracellular domain (Homo sapiens, UniProt P02786 SEQ:89-760). As to the kind of experiment: SPR; not measurable. Particulars: tags: N-terminal His6; expressed in HEK293; Sino Biological 11020-H07H; chain copies: 2 (inferred); label: biotin (SPR) or Cy3 (cells). On the procedure: (§1) Surface plasmon resonance-based biosensor assay. The Biacore T100 (GE Healthcare, Uppsala, Sweden) was used to monitor label-free interactions of truncated TR14-hTfR1 in real time. The biotinylated aptamer was coupled to a streptavidin-coated Biacore chip (SensorChip SA, BR-1003-98, General Electric Company) by an injection in binding buffer at a concentration of 25 μg/mL (30 mM Tris-HCl, pH 7.5; 150 mM NaCl; 5 mM MgCl₂) at 10 uL/min. The RNA was refolded by heating to 65° C., followed by cooling to 37° C., before immobilization. To measure binding kinetics, five concentrations of purified hTfR1 protein were injected at a flow rate of 10 uL/min. After binding, the surface was regenerated by injecting 50 mM NaOH at a flow rate of 15 μL/min for 20 s. Data from the control surface were subtracted. BIAevaluation software (GE Healthcare) was used for analysis. The binding data was fit to a 1:1 binding with a mass transfer model to calculate kinetics parameters as previously described (Hernandez et al, 2009; Soontornworajit et al, 2011)
T1 sequence (P02786 89-760): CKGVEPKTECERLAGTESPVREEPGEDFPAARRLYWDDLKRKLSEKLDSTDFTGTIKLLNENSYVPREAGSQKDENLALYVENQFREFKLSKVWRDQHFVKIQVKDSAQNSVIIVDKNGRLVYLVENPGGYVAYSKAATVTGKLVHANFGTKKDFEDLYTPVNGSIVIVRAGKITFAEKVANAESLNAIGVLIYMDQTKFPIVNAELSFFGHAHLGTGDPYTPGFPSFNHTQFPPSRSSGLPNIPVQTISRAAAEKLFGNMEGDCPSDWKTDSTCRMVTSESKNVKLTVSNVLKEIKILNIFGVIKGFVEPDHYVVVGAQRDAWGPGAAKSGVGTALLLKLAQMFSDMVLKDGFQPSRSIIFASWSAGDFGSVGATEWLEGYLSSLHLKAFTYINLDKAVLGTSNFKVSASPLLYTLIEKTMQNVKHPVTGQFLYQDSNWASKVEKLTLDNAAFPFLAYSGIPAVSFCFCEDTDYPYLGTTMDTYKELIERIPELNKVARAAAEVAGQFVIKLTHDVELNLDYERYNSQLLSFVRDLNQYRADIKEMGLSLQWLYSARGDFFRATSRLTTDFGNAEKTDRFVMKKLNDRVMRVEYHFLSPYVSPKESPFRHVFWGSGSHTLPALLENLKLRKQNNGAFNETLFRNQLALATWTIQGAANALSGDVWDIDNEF
In general terms: SPR reads the build-up and loss of mass on a sensor chip optically.

Data set [2] deals with T1, Transferrin receptor 1 (hTfR/hTFRC) …. In words: SPR; 30 mM Tris pH 7.5, 150 mM NaCl, 5 mM MgCl2; aptamer immobilised. The conditions noted are these: tags: N-terminal His6; expressed in HEK293; Sino Biological 11020-H07H; chain copies: 2 (inferred); label: biotin (SPR) or Cy3 (cells). As to the method:
as §1

In the case of GCUCAAUGCGUUCACGUUUAUUCACAUUUUUGAAUUGAGC (ssRNA, 2'-F pyrimidines (rule of the parent selection)) [TR14 ST1-1 (40-nt)], the binding result in data set [1] is given as “no binding”.
Usually Kd stands for a measure of binding affinity in units of concentration. Read a high Kd as a looser complex. For the molecule UUUAUUCACAUUUUUGAAUUGA (ssRNA, 2'-F pyrimidines (rule of the parent selection)) [TR14 ST1-3 (22-nt)], binding in data set [2] was characterised by a dissociation constant (Kd) of 22 pM.
On to AAUGCGUUCACGUUUAUUCACAUUUUUGAAUU (ssRNA, 2'-F pyrimidines (rule of the parent selection)) [TR14 ST1-2 (32-nt)], for which, in data set [1], the binding result is listed as “no binding”.
With GGGGCUCAAUGCGUUCACGUUUAUUCACAUUUUUGAAUUGAGCAUG (ssRNA, 2'-F pyrimidines (rule of the parent selection)) [TR14 S1 (46-nt)], the Kd in data set [2] amounted to 1460 pM.
